Results as given in the supplement of paper PMC12636428.

Tested on: Saccharomyces cerevisiae
Experiment: transcriptional activation domain activity (GFP:mCherry ratio, weighted mean of sorted bins, harmonized to initial dataset scale) (arbitrary fluorescence ratio units); higher = stronger transcriptional activation
Settings: beta-estradiol 1 µM; induction time 4 h
Outline: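 The listed activation activity is a read-weighted mean of bin median fluorescence, averaged across barcodes and linearly mapped onto the initial dataset scale. Barcoded tiles, fused to an estradiol-inducible synthetic transcription factor, were integrated at URA3 in yeast diploids bearing a GFP reporter. Cells were held 4 hours at 30 °C in SC with 1 uM beta-estradiol, sorted into 8 GFP:mCherry bins, and sequenced, and tiles with fewer than 50 reads were excluded.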

Row | Sequence | transcriptional activation domain activity
1 | TIDSSGVVLTPDPLSFDIGNFDSFSTSLYGFWPLTNAFDFTPYNSGSLAWLLL | 99800
2 | TLVEINGNQIRGSSELMDKDNIYLHLRRIFTCFQIEFLKLTGLPFLLREKLPG | 63400
3 | GILFATEGLYTMRFSSWYVRGLFISASIMLFFCYVVARVIIVVVMFTSLRGLP | 49900
4 | TESVCWDFVWLTFYFTFGLTSLITSWAALPPLSQWSLSFGQLVPIFLLLFFLT | 46700
5 | FLDFLDLWTFGLFGPLDFLDFLDFLDFLDFLDFLDFLDLWTFGLFGPLDFLDF | 46900
6 | HKEASDKENTGSGQAQKNNKVKANTGARVKDEQEAKKKVGRPKKGTEAGTGAG | 39500
7 | HVGRLMPIIAYFRAVIKCIEMLGVKRPVLVCPLSSFHGGFYVGGLMFQCVDRK | 62600
8 | AAGGGGTGAGGAAGAARAAGHGAVGAAAGDGEQREGRAGRGRGHGRGVEGGRG | 59200
9 | MLVLILTLYYFSNYLKSTHQLLSMNLLSSDDLCGILVRDNIIFSILFTFPKIL | 63200
10 | RVLVILRMWAFCYRGNGRTKYAHEMLHLLHNLICVWTKELRHIVLQNWLANPQ | 61100
11 | EDEASQPAKPRARPAPSRAQNRSKEKSSKTARKRKDKSPPASQQEPEQDEGSE | 18600
12 | LPFYFFLHCTLSMIPSIHSPSFLQSYICFMLIPPLPLMFIVVFHPLYFFWLFL | 15000
13 | LEQHPKDRVKFSTPELVPLDLKNPELDSSFDLNMNLDLNLNLDSNFNIALNRS | 97100
14 | MYVLARVRMFSSGSRLLRLDRVRGYMLWLILLVVYVYLALTCISFRPPFFYHS | 71600
15 | MALPVIFLFFLHVNILLLCRRFLLVFFLLLVFFLLLVFFFLLLVFFLLLVFLL | 66200
16 | VPTVFMAIIQEFASFLYLYQMMCMWVWYYFQYYQMGLVQTIIILMAAFIRVFL | 65400
17 | DAAAAAAAKKKKQQQQQQQEKEEEAKKEKASSASSASRASSISAHKASVSAAK | 19700
18 | SGDAVMKDAVEEAGAAAAEAKPEPEPKPEPKPKRKAPAKKAKIVAAVSAAIAN | 26600
19 | SDASEGSKGRAREDPSDRAVVEYQGLSRFSSIPEKEKVWAYVVKIVKLLATTK | 34600
20 | LIRAVWSHFKADFNAIYLGRLLVLLAYQKRRPRPPTGYNLGHHADPGLHTFWA | 38200
21 | LVLTGDAHSTYDVEVLVLMYILICGPFNFISGQLGEYRSIALVNVEFVVVWPA | 63300

Row | Sequence | transcriptional activation domain activity
22 | VRVVVANMFGLVIIFLFFFMYFDDFSKEILNAVQVSQIWMYLHFPLHLCQVAF | 50400
23 | LIVMRDRVEIIMLLWPIINIAFVILVGYDSDVTKSIRRLRQKYWSSLSVMAST | 68600
24 | MGTTGWRTRAIPYGFVFFYFILVMSLFFSSPLLTTTAVFILFYLLFLFSCYSS | 36000
25 | ESAAASSNQSSAPASAPTPNAPPSTANAEGGENKPKPSRRRGRGGGGGGQKQN | 27400
26 | MFYNAQFVDCGPSALVMVLVLLAPYLPNPLQLRRAFTTRPPTVLFAVLGILET | 61600
27 | YHALKVYRGLGLLLVNGVTGICLSICVIVVACFGHFHFSPYWVLQWAVMSRIV | 63500
28 | KMSTNANNYTGAGNLHAAKPATSPTNVGTLHENLSSSHFMIPDVDQFNSFEDF | 30300
29 | KVDNGGKVDNSGKVDNGRKVDSRKIDDGRKVDDGRNVDNRGRVDEGGGVVKGG | 19500
30 | IPTPFASHAFNPFDGFLQSLPYHLYAYFIPMHKYLYLSMFVFVNFWTVMIHDG | 50600
31 | SLAVRTGAELGQDASMDDAEARNMDGNLDVDLAELSLGQRLTAVNGTEGAGRS | 19700
32 | SQNSNDTSSKGIVDPFVEQNNDITTALLNNELFQGPSLSDEVTDWFGASEDIG | 91000
33 | MIIVRSIFYCLGLIALLEFMLIRVASAFAISSLLTNLAYNKPFFLTYLSCATH | 67100
34 | SKEREQRERSVEQEQPRRKNGRRRRDKRDEQRRRNRRRSSSSRRESRSSRRES | 44600
35 | VQVDDRSIMVSELAVKLGRNFRAQLAILVLFRVVTSKEHIIRKGWKDIIRIWL | 62200
36 | MGWGAFWRWLVGCSLVLYVFYPLLSYLRCFILVFRFVYIYLPLTDCFLLFISK | 53300
37 | GKADKKETANGKSTDSKTAGGNANSTARKRKTSNASVQDQKAAKATTTAASRK | 27600
38 | AQQPQKKPGAPKPKGAVRAKSGCYTCRIRRKKCDENPNAEGACQTCVRLRLQC | 66200
39 | THYLCFIFSPRKLWPMNTQVSIPLFHLLILPVSPWIKQLYWLVFWNLFFVWWM | 56200
40 | YFVYLLQLIYYICFSIGVSFSMKVFDYVTFMDSITGHAGHMLCVCIFFLIGAV | 75800
41 | LEEAEDGGGALADGEIEVRVAATGVTVDDARAAAGLRAGYTVGTECSGTVARV | 11500
42 | FPAHFLSLLLTPISFSPLPIFPCTYINFLPLLQYLLLGNFFFGCIIWRPMTFC | 59000

Row | Sequence | transcriptional activation domain activity
43 | GLDCDKQHVRECPDFAERGTCATRGCKLPHVIRANRNRKAPAPAAQKSTSTST | 25500
44 | SLHFNLGELRRTLLPFMWLTLKLSFFLWIFGRHAASNKRVVLCILALLCVLWE | 64800
45 | RNVEDCAATNGSLVPISMPGGKREENDRRVPRANVSKVIILGSGGLSIGQAGE | 44500
46 | MYTHALDPHDAANGLYSCLPCFYIFISTDDVARKIVLVPCIPLLKYALHAIQL | 61900
47 | YNLVLSHNLVLSHLWHHYYVQHLHGLLRSFSSINLPFLLHLPLSLLLLHWVTW | 55700
48 | HFNSVTTTYFKDGQSFYDILKCILPCIVDFLPKNSILVHCICAYLHFRILVGL | 53500
49 | CGRCRCCRGLLPLYPHHPFSFFVLLCIPGMFLLLLVHWMFLSFVSGFAILVPE | 79500
50 | IRYWTWMVWVIIIGSTLAFHVWIAIYSQFDVFTFESELFYLYTTLNFWTCIVF | 57100
51 | ESGSGSGSESGDSKDTAKAQGRGRKRGRESENHSSEDEEESVERKPRKARKFR | 36100
52 | DSDGDEEPGKKRQKTALSCGECKRRKIKCDRKVPCVSCIKRGEPEKCNWEEAR | 30900
53 | VYMLTMESKKLLLRHVIDKLPGFLPTDLSGVTFLADWIHMQTGRIKKGTFNIV | 59700
54 | GDAKSTLEQLGDDAKLVDEDGNLCDAECIVDKVKEVVKHAGRTTRKSLLKLGL | 51100
55 | VIIQLQKLFLVSISLKLVQRISSLNQLFKTSVASLPAIGNLFLLWATLFIFFA | 53000
56 | CLMVVFLIVQLLVITVARRCRKTDARFVLERVFLKTHLGLYVFCLLITNFASG | 50200
57 | QAEDSNDNDNNNKAAAEEEEEEGGGERSGPMVNGNGGGGAEGMVNGASAVGRD | 14800
58 | MLPRLFFVAFATIPSPSSPLPPLPFLSSLAFFFSFFPHLISFLFVFFSFHTFF | 51400
59 | IAPCGSWTPYTCLILGSIISLFIDFDVFAPFSYRGFITSYFGLAWFWFMFLFW | 56200
60 | TIALMGQDSIYLQVLAGDPNEAQSKNARRVYRLLKRGKHWVLVTLLLSNVIVN | 27400
61 | GGLCAANFVAILITASVNIWTLLGNVYYSPLVNRCVCVARPEWMWTIWIFPLL | 46700
62 | PAAEEVAAAPAHEEPALPKHEELEIEEADEPVHRAAPAERATAAPAAAPVKAP | 29700
63 | MFGICTYSIPFLYFPPIPFVSYVSTLYFFVSHSISFHYLYIYCSIHLPFFLFI | 69000

Row | Sequence | transcriptional activation domain activity
64 | EITNDESVEAHKEEQAVEAKEGSPEIAAEAEAEEGGAKPAEESKKPRKLIEEE | 12500
65 | ESSGGESEDDYVQEKRSSKPKRRGSRRGDEEEGGGGRKRAAQKKRKRKQPEEV | 34800
66 | NCVNLSFQLLFGELVVFLISLYMSVLYGLLYMFFVAQLPPEVRLIPMMCSCWF | 59700
67 | MPDVIFKPPPADPCHYDMCLVLYYSVLFSHFIVGFFLRVLHLWCSLLHFYSRI | 63500
68 | CCLLRTLGRFLLFIIFSPSLSTSSFQTLPLTLPFYLLSIFTKKPLYPIPFLCI | 44800
69 | MVIQKYMFLYFLFCILIFLCIQDLDQDKYNDSLWCSRPFYCHNLFIIILAFIH | 51800
70 | REARRHADEEARRRQARQEARRHADEEARRRQEEELARQEARRHADEEARRRQ | 27000
71 | GIPVKAYPPNGVYPFSGLSCYAMIVSFLHSELDMVYMTFRELYARYFHHLHTI | 70500
72 | MYNMLVCLAIEFLWQHLYFFLFLYLTLCCDTFQLILYTPLSMFLFFIFILLKK | 16500
73 | WWMYLPLLLLLVLMFAPHYSILVLLVSYYLNIHDSPFLFSLHLFVIYLITFLA | 58200
74 | MYNNIHIPFFVLFLFFFFLSLFFFFFSLIFFFSFYCILTLCWYAFCLFFLKKN | 34700
75 | PSIFFLLFICYFVICSIHVDLCYYDSLFNCLFFISSMFSHNYLFFCLCLCYHV | 64200
76 | HEDQKLREDQEARLRAVEEFEAVQMGLSVKTGASARVIGRQGGRIVAEEEQHV | 26100
77 | MFCLRSWLPLLFIPTNASPAFILLFFIGTYFLNRPCVYCSLLLLILFCTSCVW | 40200
78 | KSEKPEKERKHRDKGEREHRDRSEREHKVREPKEPREKGEKEKRHKTAEEKAG | 16900
79 | IRWHIREHQLRVLAKFCADRIGDPYVYCPCIIAKGLVLALIRIVSALLEKPAI | 56200
80 | MSLASLAAQRSNCMKRAVGCVLVGRERRVISTGYNGTPRGIRNCGEGGCARCN | 44500
81 | LAQDPAGEQKKRRGRPPRYNVKLEPGEGDGAVTAPVKARKRKRESETPLSAPP | 33600
82 | MSDHRIIIVLAFFLIFFFNPPPLPLPTYPYQYSLLTYSLFFEPFFFSFPFFFS | 63100
83 | MLLFYILLSFSISSFFVCSLSNMLFFYMHHLIYMLTIFFYLLFNPITPILFFV | 51300
